Results: publication PMC5785977, “A dual role for the N-terminal domain of the IL-3 receptor in cell signalling” (Nature Communications, 2018)
Substitutions are numbered along the chain they refer to. In names and notes the source's numbering stands. Read-outs that look alike come from different tables or passages of the source. One block for each molecule: values may come before it.

How the values were obtained:
IL5Rα:βc (Homo sapiens) = IL5Rα:βc (Homo sapiens) (UniProt Q01344); conditions: cited from earlier work
GMRα:βc (Homo sapiens) = GMRα:βc (Homo sapiens) (UniProt P15509); conditions: cited from earlier work
IL3Rα ECD (Homo sapiens) [1] = target: IL3Rα ECD (Homo sapiens) (UniProt P26951); experiment: SPR; conditions: cited from earlier work
IL3Rα ECD (Homo sapiens) [2] = target: IL3Rα ECD (Homo sapiens) (UniProt P26951); experiment: SPR; conditions: cited from earlier work; remark: listed apart in the source
IL3Rα ECD (Homo sapiens) [3] = target: IL3Rα ECD (Homo sapiens) (UniProt P26951); experiment: SPR; conditions: cited from earlier work; remark: listed apart in the source
IL3Rα ECD (Homo sapiens) [4] = target: IL3Rα ECD (Homo sapiens) (UniProt P26951); experiment: SPR; conditions: cited from earlier work; remark: listed apart in the source
IL3Rα ECD (Homo sapiens) [5] = target: IL3Rα ECD (Homo sapiens) (UniProt P26951); experiment: SPR; conditions: cited from earlier work; remark: listed apart in the source
IL3Rα ECD (Homo sapiens) [6] = target: IL3Rα ECD (Homo sapiens) (UniProt P26951); conditions: cited from earlier work
IL3Rα:βc (Homo sapiens) = IL3Rα:βc (Homo sapiens) (UniProt P26951); conditions: cited from earlier work
[7] = target: T1, IL3Rα + βc co-expressed on CTLL-2 cells (human, UniProt P26951 19-378; P32927 17-897, N144 and R145 to K144); experiment: radioligand binding; saturation binding of radioiodinated (125I) cytokine to the CTLL-2 cell line expressing IL3Rα and βc; dissociation constants by EBDA and LIGAND; conditions: one partner purified
T1 construct: IL-3 receptor α-subunit, human, full-length; the cDNA of the site 1 functional studies in CTLL-2 encodes a splice variant that changes N144 and R145 to K144; beta common (βc) receptor subunit, human, wild-type; also called CTLL-2 IL3Rα + βc; source: CTLL-2 cells, retrovirally transduced, on cells
T1 sequence (looked up) 1: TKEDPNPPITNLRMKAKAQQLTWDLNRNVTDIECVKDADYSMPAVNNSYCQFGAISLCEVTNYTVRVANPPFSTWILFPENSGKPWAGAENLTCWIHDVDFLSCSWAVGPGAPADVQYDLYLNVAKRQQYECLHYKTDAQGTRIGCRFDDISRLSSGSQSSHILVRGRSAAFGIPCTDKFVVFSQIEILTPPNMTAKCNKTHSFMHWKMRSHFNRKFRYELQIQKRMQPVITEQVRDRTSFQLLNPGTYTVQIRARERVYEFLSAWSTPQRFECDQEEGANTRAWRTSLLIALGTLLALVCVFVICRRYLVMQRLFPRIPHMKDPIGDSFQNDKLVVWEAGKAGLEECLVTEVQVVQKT
T1 sequence (looked up) 2: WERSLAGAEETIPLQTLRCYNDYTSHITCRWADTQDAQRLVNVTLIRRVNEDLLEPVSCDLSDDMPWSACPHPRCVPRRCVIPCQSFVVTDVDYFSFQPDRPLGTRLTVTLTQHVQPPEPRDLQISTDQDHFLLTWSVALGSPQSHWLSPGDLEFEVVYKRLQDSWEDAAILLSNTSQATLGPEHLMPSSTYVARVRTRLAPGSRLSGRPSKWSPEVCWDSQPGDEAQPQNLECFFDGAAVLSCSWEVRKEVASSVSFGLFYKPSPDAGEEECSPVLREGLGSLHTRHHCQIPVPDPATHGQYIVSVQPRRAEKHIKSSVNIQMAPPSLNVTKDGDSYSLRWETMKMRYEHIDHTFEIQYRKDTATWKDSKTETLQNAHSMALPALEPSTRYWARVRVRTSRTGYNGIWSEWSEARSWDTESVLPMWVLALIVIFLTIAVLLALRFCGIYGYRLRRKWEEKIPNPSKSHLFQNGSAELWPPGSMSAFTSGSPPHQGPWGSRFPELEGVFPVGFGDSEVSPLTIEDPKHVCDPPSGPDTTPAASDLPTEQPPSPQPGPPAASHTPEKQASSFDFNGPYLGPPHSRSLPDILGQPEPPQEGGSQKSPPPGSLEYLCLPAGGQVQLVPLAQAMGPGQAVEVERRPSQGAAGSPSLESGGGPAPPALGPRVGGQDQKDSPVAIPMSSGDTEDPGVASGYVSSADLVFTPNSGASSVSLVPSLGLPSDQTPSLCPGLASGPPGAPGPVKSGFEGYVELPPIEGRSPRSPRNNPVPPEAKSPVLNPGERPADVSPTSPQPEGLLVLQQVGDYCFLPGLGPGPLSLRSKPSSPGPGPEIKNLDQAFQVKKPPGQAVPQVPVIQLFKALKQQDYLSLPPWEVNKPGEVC

[8] = target: IL3Rα D197L + βc co-expressed on COS cells (human) (UniProt P26951)
[9] = target: IL3Rα SP2 + βc co-expressed on COS cells (human) (UniProt P32927)
[10] = target: IL3Rα + βc co-expressed on COS cells (human) (UniProt P26951)
[11] = target: IL3Rα C76A,C195A + βc co-expressed on COS cells (human) (UniProt P26951)
[12] = target: IL-3 receptor on TF-1Hi cells (overexpressed IL3Rα) (human | human (endogenous in TF-1)) (UniProt P26951); experiment: radioligand binding; saturation binding of radioiodinated (125I) cytokine to TF-1Hi cells (overexpressed IL3Rα); dissociation constants by EBDA and LIGAND
[13] = target: T2, endogenous IL-3 receptor on TF-1 cells (human (endogenous in TF-1), UniProt P26951 19-378; P32927 17-897); experiment: radioligand binding; saturation binding of radioiodinated (125I) cytokine to TF-1 cells (endogenous receptor); dissociation constants by EBDA and LIGAND; conditions: one partner purified
T2 construct: IL-3 receptor α-subunit, endogenous in the human TF-1 erythroleukaemic cell line; beta common (βc) receptor subunit, endogenous in the human TF-1 cell line; the discussion notes that TF-1 cells also express transcripts of the IL3Rα SP2 splice variant; also called TF-1 Endogenous; source: endogenous, on TF-1 cells

[14] = target: IL3Rα D197L + βc co-expressed on COS cells (human) (UniProt P26951); experiment: radioligand binding; saturation binding of radioiodinated (125I) cytokine to transfected COS cells; dissociation constants by EBDA and LIGAND
[15] = target: IL3Rα SP2 + βc co-expressed on COS cells (human) (UniProt P32927); experiment: as above
[16] = target: full-length IL3Rα expressed alone on COS cells (human) (UniProt P26951); experiment: as above
[17] = target: IL3Rα + βc co-expressed on COS cells (human) (UniProt P26951); experiment: as above
[18] = target: IL3Rα C76A,C195A + βc co-expressed on COS cells (human) (UniProt P26951); experiment: as above

Chain of GMRα:βc (Homo sapiens) (P15509 23-320): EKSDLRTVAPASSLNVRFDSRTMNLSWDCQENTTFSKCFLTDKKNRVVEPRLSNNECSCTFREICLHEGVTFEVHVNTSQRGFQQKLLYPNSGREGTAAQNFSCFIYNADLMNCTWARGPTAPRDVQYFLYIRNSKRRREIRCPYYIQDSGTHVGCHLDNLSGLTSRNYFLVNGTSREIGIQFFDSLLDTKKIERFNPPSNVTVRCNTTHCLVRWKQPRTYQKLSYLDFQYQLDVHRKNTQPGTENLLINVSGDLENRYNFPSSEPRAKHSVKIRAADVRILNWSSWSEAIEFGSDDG
Chain of IL5Rα:βc (Homo sapiens) (Q01344 21-342): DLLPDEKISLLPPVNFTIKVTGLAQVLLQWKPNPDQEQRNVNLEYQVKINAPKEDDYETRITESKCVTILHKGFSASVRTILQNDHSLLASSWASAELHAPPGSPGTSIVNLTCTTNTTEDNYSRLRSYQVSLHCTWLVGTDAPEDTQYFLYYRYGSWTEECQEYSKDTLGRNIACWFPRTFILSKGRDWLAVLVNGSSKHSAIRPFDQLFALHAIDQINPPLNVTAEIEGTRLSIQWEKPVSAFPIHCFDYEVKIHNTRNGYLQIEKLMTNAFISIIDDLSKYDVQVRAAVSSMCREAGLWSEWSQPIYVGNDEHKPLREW

Molecule: IL-5 (from UniProt P05113)
- Kd (IL5Rα:βc (Homo sapiens)): 0.2 nM

Molecule: GM-CSF (from UniProt P04141)
- Kd (GMRα:βc (Homo sapiens)): 0.2 nM

Molecule: IL-3 (from UniProt P08700)
- Kd (IL3Rα ECD (Homo sapiens) [1]): > 5000 nM
- Kd (IL3Rα ECD (Homo sapiens) [2]): > 5000 nM
- Kd (IL3Rα ECD (Homo sapiens) [3]): 220 nM
- Kd (IL3Rα ECD (Homo sapiens) [4]): > 5000 nM
- Kd (IL3Rα ECD (Homo sapiens) [5]): > 5000 nM
- Kd (IL3Rα ECD (Homo sapiens) [6]): 510 nM
- Kd (IL3Rα:βc (Homo sapiens)): 0.2 nM

- Kd [7]: 0.34 nM
- proliferation of FDH cells co-expressing βc and IL3Rα D197L, ED50 of the IL-3 dose–response [8]: 1.71 ng/mL
- proliferation of FDH cells co-expressing βc and IL3Rα SP2, ED50 of the IL-3 dose–response [9]: 6.94 ng/mL
- proliferation of FDH cells co-expressing βc and wild-type IL3Rα, ED50 of the IL-3 dose–response [10]: 0.29 ng/mL
- proliferation of FDH cells co-expressing βc and IL3Rα C76A,C195A, ED50 of the IL-3 dose–response [11]: 12.2 ng/mL
- Kd [12]: 0.14 nM
- Kd [13]: 2.06 nM
- Kd [14]: 4.37 nM
- Kd [15]: 7.61 nM
- Kd [16]: 141 nM
- Kd [17]: 0.48 nM
- Kd [18]: 1.1 nM
B1: wild-type human IL-3, residues W13 to Q125 of the mature peptide with a W13Y mutation and a GAMGS N-terminal tail (ligand)
chain: GAMGSYVNCSNMIDEIITHLKQPPLPLLDFNNLNGEDQDILMENNLRRPNLEAFNRAVKSLQNASAIESILKNLLPCLPLATAAPTRHPIHIKDGDWNEFRRKLTFYLKTLENAQAQQ
modifications: radioiodinated with 125I in the cell-surface binding assays (residue not stated)
notes: N-terminal tail arising from the expression plasmid, left after TEV cleavage; interleukin-3, human, residues W13 to Q125 of the mature peptide; numbers count on: the mature protein; also called wild-type IL-3; interleukin-3; source: E. coli BL21 CodonPlus (DE3)-RIPL, purified (HisTrap, TEV digest, SEC, reversed-phase); not shown: Nus, N-terminal, cleaved; 6xHis, N-terminal, cleaved

- Kd [7]: 0.14 nM
- proliferation of FDH cells co-expressing βc and IL3Rα D197L, ED50 of the IL-3 K116W dose–response [8]: 0.6 ng/mL
- proliferation of FDH cells co-expressing βc and IL3Rα SP2, ED50 of the IL-3 K116W dose–response [9]: 2.19 ng/mL
- proliferation of FDH cells co-expressing βc and wild-type IL3Rα, ED50 of the IL-3 K116W dose–response [10]: 0.37 ng/mL
- proliferation of FDH cells co-expressing βc and IL3Rα C76A,C195A, ED50 of the IL-3 K116W dose–response [11]: 2.51 ng/mL
- Kd [12]: 0.065 nM
- Kd [13]: 0.35 nM
- Kd [14]: 1.6 nM
- Kd [15]: 2.98 nM
- Kd [16]: 17.8 nM
- Kd [17]: 0.43 nM
- Kd [18]: 0.94 nM
B2: human IL-3 K116W, residues W13 to Q125 of the mature peptide with a W13Y mutation and a GAMGS N-terminal tail (ligand)
chain: B1 chain with K109W
modifications: radioiodinated with 125I in the cell-surface binding assays (residue not stated)
notes: N-terminal tail arising from the expression plasmid, left after TEV cleavage; interleukin-3, human, residues W13 to Q125 of the mature peptide; numbers count on: the mature protein; also called IL-3 K116W superkine; IL-3 superkine; source: E. coli BL21 CodonPlus (DE3)-RIPL, purified (HisTrap, TEV digest, SEC, reversed-phase); not shown: Nus, N-terminal, cleaved; 6xHis, N-terminal, cleaved
